Reference: patent publication US20200087416A1

Legend:
[1] = target: cynomolgus PCSK-9 (cynomolgus); experiment: BLI (ForteBio), IgG on AHQ sensor, 100 nM antigen
[2] = target: cynomolgus PCSK-9 (cynomolgus); experiment: MSD-SET, Fab with biotin-PCSK9 in solution, IgG on plate, pH 7.4
murine PCSK-9 (murine) = murine PCSK-9 (murine) (UniProt Q80W65); experiment: as above
[3] = target: human PCSK9 (PCSK9 antigen, SEQ ID NO. 53) (human); experiment: as above
[4] = target: human PCSK9 (PCSK9 antigen, SEQ ID NO. 53) (human); experiment: MSD-SET, Fab with biotin-PCSK9 in solution, IgG on plate, pH 6.0

| Kd [1] | Kd [2] | Kd (murine PCSK-9 (murine)) | Kd [3] | Kd [4] | Binder |
| --- | --- | --- | --- | --- | --- |
| 2.34 nM |  |  |  |  | Lodelcizumab (antibody, INN chains, looked up, V domains shown) VH: QVQLVQSGAEVKKPGASVKVSCKASGYTFSTMYMSWVRQAPGQGLEWMGRIDPANEHTNYAQKFQGRVTMTRDTSISTAYMELSRLTSDDTAVYYCARSYYYYNMDYWGQGTLVTVSS VL: QIVLTQSPATLSVSPGERATLSCRASQSVSYMHWYQQKPGQAPRLLIYGVFRRATGIPDRFSGSGSGTDFTLTIGRLEPEDFAVYYCLQWSSDPPTFGQGTKLEIK |
|  | 0.1 nM |  |  |  | Lodelcizumab Fab (Fab, INN chains, looked up, V domains shown, Fab) VH: QVQLVQSGAEVKKPGASVKVSCKASGYTFSTMYMSWVRQAPGQGLEWMGRIDPANEHTNYAQKFQGRVTMTRDTSISTAYMELSRLTSDDTAVYYCARSYYYYNMDYWGQGTLVTVSS VL: QIVLTQSPATLSVSPGERATLSCRASQSVSYMHWYQQKPGQAPRLLIYGVFRRATGIPDRFSGSGSGTDFTLTIGRLEPEDFAVYYCLQWSSDPPTFGQGTKLEIK |
|  | 0.026 nM | 0.065 nM | 0.021 nM | 0.038 nM | Bococizumab Fab (Fab, INN chains, looked up, V domains shown, Fab) VH: QVQLVQSGAEVKKPGASVKVSCKASGYTFTSYYMHWVRQAPGQGLEWMGEISPFGGRTNYNEKFKSRVTMTRDTSTSTVYMELSSLRSEDTAVYYCARERPLYASDLWGQGTTVTVSS VL: DIQMTQSPSSLSASVGDRVTITCRASQGISSALAWYQQKPGKAPKLLIYSASYRYTGVPSRFSGSGSGTDFTFTISSLQPEDIATYYCQQRYSLWRTFGQGTKLEIK |
